Assay results from publication PMC12820099, “CTCF couples long-range loop extrusion and diffusion to mediate a diverse Igκ repertoire” (Nature Communications, 2025).
Blank lines part the entries; values can stand above or below the binder they belong to.

Biological target: T1, SMC3 (mouse (endogenous in v-Abl pro-B cells), UniProt Q9CW03 1-1217)
T1 construct: SMC3, mouse, endogenous; precipitated with an SMC3 antibody from the solubilised chromatin fraction; Bait of the IP; it sits in the cohesin complex, so partners may touch other cohesin subunits rather than SMC3 itself; also called cohesin (SMC3 immunoprecipitate); source: endogenous, chromatin fraction of G1 arrested v-Abl pro-B cells (WT and CTCF-Nm)
T1 sequence (Q9CW03 whole entry): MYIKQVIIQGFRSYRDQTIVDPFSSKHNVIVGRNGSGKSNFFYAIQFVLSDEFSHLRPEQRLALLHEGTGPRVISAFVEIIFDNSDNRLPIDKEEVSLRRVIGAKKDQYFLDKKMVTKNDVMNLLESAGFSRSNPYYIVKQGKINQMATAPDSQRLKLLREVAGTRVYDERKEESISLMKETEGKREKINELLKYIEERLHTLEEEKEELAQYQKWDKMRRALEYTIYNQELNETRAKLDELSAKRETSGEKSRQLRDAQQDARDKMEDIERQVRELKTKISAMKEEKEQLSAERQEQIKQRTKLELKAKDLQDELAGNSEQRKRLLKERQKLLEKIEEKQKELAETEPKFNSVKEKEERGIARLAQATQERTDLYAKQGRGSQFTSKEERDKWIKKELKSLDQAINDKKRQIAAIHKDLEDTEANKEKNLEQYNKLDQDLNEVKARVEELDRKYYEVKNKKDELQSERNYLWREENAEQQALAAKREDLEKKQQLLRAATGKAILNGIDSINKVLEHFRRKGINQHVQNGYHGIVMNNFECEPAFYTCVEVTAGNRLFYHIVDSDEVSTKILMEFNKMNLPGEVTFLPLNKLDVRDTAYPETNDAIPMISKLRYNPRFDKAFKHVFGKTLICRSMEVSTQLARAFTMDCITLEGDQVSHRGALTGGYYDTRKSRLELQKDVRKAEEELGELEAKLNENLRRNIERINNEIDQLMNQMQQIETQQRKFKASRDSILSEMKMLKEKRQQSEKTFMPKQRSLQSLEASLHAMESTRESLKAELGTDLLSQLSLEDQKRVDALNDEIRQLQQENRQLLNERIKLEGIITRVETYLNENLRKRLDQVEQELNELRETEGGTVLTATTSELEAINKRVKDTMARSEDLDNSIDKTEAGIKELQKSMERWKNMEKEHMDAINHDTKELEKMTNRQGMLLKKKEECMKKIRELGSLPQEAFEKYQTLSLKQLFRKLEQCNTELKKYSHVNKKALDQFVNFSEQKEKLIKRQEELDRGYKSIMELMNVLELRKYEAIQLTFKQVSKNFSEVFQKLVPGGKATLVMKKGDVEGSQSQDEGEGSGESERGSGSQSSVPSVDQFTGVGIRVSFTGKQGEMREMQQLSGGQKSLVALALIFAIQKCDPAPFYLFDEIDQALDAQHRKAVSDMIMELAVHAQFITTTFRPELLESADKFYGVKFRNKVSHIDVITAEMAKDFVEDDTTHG
Assay: affinity purification with mass spectrometry; SMC3 antibody IP (Protein A beads, overnight, 100 mM NaCl) from Benzonase-solubilised chromatin fraction of G1 arrested WT and CTCF-Nm v-Abl pro-B cells; label-free qMS, protein intensities normalised to chromatin-bound SMC3; IgG isotype control
Settings: partners not purified

- fold increase of the interaction in CTCF-Nm cells against WT cells: 1.9 fold
B1: WAPL (natural protein, mouse (endogenous in v-Abl pro-B cells), UniProt Q65Z40 1-1200, looked up)
chain: MTSRFGKTYSRKGGNGSSKFDEVFSNKRTTLSTKWGETTFMAKLGQKRPNFKPDIQEIPKKPKVEEEDTGDPFGFDSDDESLPVSSKNLAQGKGSSYSESSEAAQLEEVTSVFEANSKCSHVVGEDSFASDRCLLVEDTLIGKEKSISRIPEDNANKSSCTKLLTSDKVENFSEEHEKNSHHFHKNAEDSTKKPNAETAVASEYKADETKETNDTWNSQSGKRTESPSESCPVKGSVRTGLYEWDNDFEDIRSEDCILSLDNESLLEMKDEDLKNRIGGLENLNETFEEDIIQSVLRPSNCRTYCRANKARSSQGASNFDKLMDGTSQSLAKANSESSKDGLNQAKKGSASCGTSFRGTVGRTRDYTVLHPSCLSVCNVTIQDTMERSMDEFTASTPADLGEAGRLRKKADIATSKTTTRFRPSNTKSKKDVKLEFFGFEDHDETGGDEGGSGSSNYKIKYFGFDDLSESEDDDDDDCQVERKKDKKRTKTAPSPSQQPPPESSDNSQDSQSSTNNAENLDFTEDLPGVPESVKKPISKQGDKSKENTRKIFSGPKRSPTKAVYNARHWNHPDSEELPGPPIAKPQRVTVRLSSKEPNQKDDGVFKAPAPPLKVIKTVTIPTQPYQEIVTALKCRKEDKELYTVVQHVKHFNDVVEFGENQEFTDDIEYLLSGLKSTQPLNTRCLSVISLATKCAMPSFRMHLRAHGMVAMVFKTLDDSQHHQNLSLCTAALMYILSRDRLNMDLDRASLDLMIRLLELEQDASSAKLLNEKDMNKIKEKIRRLCETVHNKHLDLENITTGHLAMETLLSLTSKRAGDWFKEELRLLGGLDHIVDKVKECVDHLSRDDEDEEKLVASLWGAERCLRVLESVTVHNPENQSYLIAYKDSQLIISSAKALQHCEDLIQQYNRAENSICVADSNPLPYQNVTNHVGKAVEDCMRAIIGVLLNLTNDNEWGSTKTGEQEGLIGTAMNCVLQVPKYLPQEQRFDIRVLGLGLLINLVEYSARNRHCLVNMQTSCSFDSSFSSGEGDHSLRLAGQVHAVQALVQLFLERERAAQLAESKTDELIKDAPTTQHDKSGEWQETSGEIQWVSTEKTDGAEEKQKKEEEDEELDLNKALQHAGKHMEDCIVASYTALLLGCLCQESPINVTTVREYLPEGDFSIMTEMLKKFLSFMNLTCAVGTTGQKSISRVIEYLEHC
notes: WAPL, mouse, endogenous, untagged in the WT and CTCF-Nm lines used for the IP; source: endogenous, chromatin fraction of G1 arrested v-Abl pro-B cells (WT and CTCF-Nm)

- fold reduction of the interaction against WT CTCF: 3 fold
B2: CTCF(Y226A/F228A) (natural protein, mouse (endogenous in v-Abl pro-B cells), UniProt Q61164 1-736, looked up)
chain: MEGEAVEAIVEESETFIKGKERKTYQRRREGGQEEDACHLPQNQTDGGEVVQDVNSSVQMVMMEQLDPTLLQMKTEVMEGTVAPEAEAAVDDTQIITLQVVNMEEQPINIGELQLVQVPVPVTVPVATTSVEELQGAYENEVSKEGLAESEPMICHTLPLPEGFQVVKVGANGEVETLEQGELPPQEDSSWQKDPDYQPPAKKTKKTKKSKLRYTEEGKDVDVSVADAEEEQQEGLLSEVNAEKVVGNMKPPKPTKIKKKGVKKTFQCELCSYTCPRRSNLDRHMKSHTDERPHKCHLCGRAFRTVTLLRNHLNTHTGTRPHKCPDCDMAFVTSGELVRHRRYKHTHEKPFKCSMCDYASVEVSKLKRHIRSHTGERPFQCSLCSYASRDTYKLKRHMRTHSGEKPYECYICHARFTQSGTMKMHILQKHTENVAKFHCPHCDTVIARKSDLGVHLRKQHSYIEQGKKCRYCDAVFHERYALIQHQKSHKNEKRFKCDQCDYACRQERHMIMHKRTHTGEKPYACSHCDKTFRQKQLLDMHFKRYHDPNFVPAAFVCSKCGKTFTRRNTMARHADNCAGPDGVEGENGGETKKSKRGRKRKMRSKKEDSSDSEENAEPDLDDNEEEEEPAVEIEPEPEPQPQPPPPPQPVAPAPPPAKKRRGRPPGRTNQPKQNQPTAIIQVEDQNTGAIENIIVEVKKEPDAEPAEGEEEEAQAATTDAPNGDLTPEMILSMMDR
notes: CTCF, mouse, endogenous, with the Y226A/F228A mutation of the N-terminal YDF motif; also called CTCF-Nm; source: endogenous locus, homozygous CRISPR/Cas9 knock-in, chromatin fraction of G1 arrested CTCF-Nm v-Abl pro-B cells
